Assay results as given in article PMC10620681, “Concentration and time-dependent amyloidogenic characteristics of intrinsically disordered N-terminal region of Saccharomyces cerevisiae Stm1” (Frontiers in Microbiology, 2023).

Target: the molecule itself
Assay: thioflavin-T fluorescence (emission spectra and kinetics); 20 uM Th-T with 1-400 uM Stm1_N 1-113; 10 mM sodium phosphate with 10 or 150 mM NaCl, pH 7.4, 25 °C; emission at 0 h, kinetics until 72 h; signal from 50 uM onwards

B1: Stm1 N-terminal region (Stm1_N^1-113) of Saccharomyces cerevisiae Stm1 (domain or fragment, UniProt P39015 1-113, looked up)
chain: MSNPFDLLGNDVEDADVVVLPPKEIVKSNTSSKKADVPPPSADPSKARKNRPRPSGNEGAIRDKTAGRRNNRSKDVTDSATTKKSNTRRATDRHSRTGKTDTKKKVNQGWGDD
notes: Stm1, Saccharomyces cerevisiae (S288c), stm1 gene YLR150W, residues 1-113 of the 273 amino acids long protein; the insert is 342 nucleotides with the termination codon; Order in the construct: N-terminal His6-tag, GB1 solubility tag, TEV protease cleavage site, Stm1_N 1-113 (vector pDZ1, a modified pET-21a); A few residues from the TEV site and the NdeI site may be left at the N-terminus after …
binding result: binds
